# Values of other authors in patent US20210265014A1, “METHOD AND ELECTRONIC SYSTEM FOR PREDICTING AT LEAST ONE FITNESS VALUE OF A PROTEIN VIA AN EXTENDED NUMERICAL SEQUENCE, RELATED COMPUTER PROGRAM PRODUCT” (PEACCEL, priority 2018, published 2021).
# Target: T1, Glucagon like peptide-2 (GLP-2) receptor (Rattus norvegicus, UniProt Q9Z0W0)
# T1 sequence (Q9Z0W0 1-550): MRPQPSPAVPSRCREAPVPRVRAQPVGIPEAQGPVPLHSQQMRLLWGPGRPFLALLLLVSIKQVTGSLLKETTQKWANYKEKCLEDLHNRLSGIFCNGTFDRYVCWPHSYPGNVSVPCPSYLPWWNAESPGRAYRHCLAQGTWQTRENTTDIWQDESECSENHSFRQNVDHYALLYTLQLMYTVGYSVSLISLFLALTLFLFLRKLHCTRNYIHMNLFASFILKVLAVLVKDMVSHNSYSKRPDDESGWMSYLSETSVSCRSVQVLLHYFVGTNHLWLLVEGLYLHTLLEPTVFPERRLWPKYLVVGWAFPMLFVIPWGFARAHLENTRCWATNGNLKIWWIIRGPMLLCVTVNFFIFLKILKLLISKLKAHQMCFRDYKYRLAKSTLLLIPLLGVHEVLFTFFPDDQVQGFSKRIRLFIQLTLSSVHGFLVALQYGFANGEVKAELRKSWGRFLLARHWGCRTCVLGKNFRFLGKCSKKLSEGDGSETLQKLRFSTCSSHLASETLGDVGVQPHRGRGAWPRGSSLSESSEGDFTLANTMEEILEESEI
# Settings: receptor activation, fold increase over basal cAMP production
row,Substance,fold-increase in cAMP
1,A2G: variant of Glucagon like peptide-2 (GLP-2) [Chimera A2G],10.00 fold
2,"D3A: alanine variant of Glucagon like peptide-2 (GLP-2) (HAAGSFSDEMNTILDNLAARDFINWLIQTKITD; Glucagon-like peptide 2; UniProt P01275 146-178, looked up, variant D3A) [Chimera D3A]",1.02 fold
3,"D8A: alanine variant of Glucagon like peptide-2 (GLP-2) (HADGSFSAEMNTILDNLAARDFINWLIQTKITD; Glucagon-like peptide 2; UniProt P01275 146-178, looked up, variant D8A) [Chimera D8A]",7.53 fold
4,"D15A: alanine variant of Glucagon like peptide-2 (GLP-2) (HADGSFSDEMNTILANLAARDFINWLIQTKITD; Glucagon-like peptide 2; UniProt P01275 146-178, looked up, variant D15A) [Chimera D15A]",4.54 fold
5,"D21A: alanine variant of Glucagon like peptide-2 (GLP-2) (HADGSFSDEMNTILDNLAARAFINWLIQTKITD; Glucagon-like peptide 2; UniProt P01275 146-178, looked up, variant D21A) [Chimera D21A]",4.42 fold
6,"D33A: alanine variant of Glucagon like peptide-2 (GLP-2) (HADGSFSDEMNTILDNLAARDFINWLIQTKITA; Glucagon-like peptide 2; UniProt P01275 146-178, looked up, variant D33A) [Chimera D33A]",3.41 fold
7,"E9A: alanine variant of Glucagon like peptide-2 (GLP-2) (HADGSFSDAMNTILDNLAARDFINWLIQTKITD; Glucagon-like peptide 2; UniProt P01275 146-178, looked up, variant E9A) [Chimera E9A]",3.76 fold
8,"F6A: alanine variant of Glucagon like peptide-2 (GLP-2) (HADGSASDEMNTILDNLAARDFINWLIQTKITD; Glucagon-like peptide 2; UniProt P01275 146-178, looked up, variant F6A) [Chimera F6A]",1.67 fold
9,"F22A: alanine variant of Glucagon like peptide-2 (GLP-2) (HADGSFSDEMNTILDNLAARDAINWLIQTKITD; Glucagon-like peptide 2; UniProt P01275 146-178, looked up, variant F22A) [Chimera F22A]",1.61 fold
10,"G4A: alanine variant of Glucagon like peptide-2 (GLP-2) (HADASFSDEMNTILDNLAARDFINWLIQTKITD; Glucagon-like peptide 2; UniProt P01275 146-178, looked up, variant G4A) [Chimera G4A]",2.87 fold
11,"H1A: alanine variant of Glucagon like peptide-2 (GLP-2) (AADGSFSDEMNTILDNLAARDFINWLIQTKITD; Glucagon-like peptide 2; UniProt P01275 146-178, looked up, variant H1A) [Chimera H1A]",0.78 fold
12,"I13A: alanine variant of Glucagon like peptide-2 (GLP-2) (HADGSFSDEMNTALDNLAARDFINWLIQTKITD; Glucagon-like peptide 2; UniProt P01275 146-178, looked up, variant I13A) [Chimera I13A]",2.45 fold
13,"I23A: alanine variant of Glucagon like peptide-2 (GLP-2) (HADGSFSDEMNTILDNLAARDFANWLIQTKITD; Glucagon-like peptide 2; UniProt P01275 146-178, looked up, variant I23A) [Chimera I23A]",2.57 fold
14,"I27A: alanine variant of Glucagon like peptide-2 (GLP-2) (HADGSFSDEMNTILDNLAARDFINWLAQTKITD; Glucagon-like peptide 2; UniProt P01275 146-178, looked up, variant I27A) [Chimera I27A]",5.02 fold
15,"I31A: alanine variant of Glucagon like peptide-2 (GLP-2) (HADGSFSDEMNTILDNLAARDFINWLIQTKATD; Glucagon-like peptide 2; UniProt P01275 146-178, looked up, variant I31A) [Chimera I31A]",4.42 fold
16,"K30A: alanine variant of Glucagon like peptide-2 (GLP-2) (HADGSFSDEMNTILDNLAARDFINWLIQTAITD; Glucagon-like peptide 2; UniProt P01275 146-178, looked up, variant K30A) [Chimera K30A]",0.84 fold

row,Substance,fold-increase in cAMP
1,"L14A: alanine variant of Glucagon like peptide-2 (GLP-2) (HADGSFSDEMNTIADNLAARDFINWLIQTKITD; Glucagon-like peptide 2; UniProt P01275 146-178, looked up, variant L14A) [Chimera L14A]",2.03 fold
2,"L17A: alanine variant of Glucagon like peptide-2 (GLP-2) (HADGSFSDEMNTILDNAAARDFINWLIQTKITD; Glucagon-like peptide 2; UniProt P01275 146-178, looked up, variant L17A) [Chimera L17A]",1.02 fold
3,"L26A: alanine variant of Glucagon like peptide-2 (GLP-2) (HADGSFSDEMNTILDNLAARDFINWAIQTKITD; Glucagon-like peptide 2; UniProt P01275 146-178, looked up, variant L26A) [Chimera L26A]",2.33 fold
4,"M10A: alanine variant of Glucagon like peptide-2 (GLP-2) (HADGSFSDEANTILDNLAARDFINWLIQTKITD; Glucagon-like peptide 2; UniProt P01275 146-178, looked up, variant M10A) [Chimera M10A]",0.78 fold
5,"N11A: alanine variant of Glucagon like peptide-2 (GLP-2) (HADGSFSDEMATILDNLAARDFINWLIQTKITD; Glucagon-like peptide 2; UniProt P01275 146-178, looked up, variant N11A) [Chimera N11A]",7.65 fold
6,"N16A: alanine variant of Glucagon like peptide-2 (GLP-2) (HADGSFSDEMNTILDALAARDFINWLIQTKITD; Glucagon-like peptide 2; UniProt P01275 146-178, looked up, variant N16A) [Chimera N16A]",5.92 fold
7,"N24A: alanine variant of Glucagon like peptide-2 (GLP-2) (HADGSFSDEMNTILDNLAARDFIAWLIQTKITD; Glucagon-like peptide 2; UniProt P01275 146-178, looked up, variant N24A) [Chimera N24A]",10.00 fold
8,"Q28A: alanine variant of Glucagon like peptide-2 (GLP-2) (HADGSFSDEMNTILDNLAARDFINWLIATKITD; Glucagon-like peptide 2; UniProt P01275 146-178, looked up, variant Q28A) [Chimera Q28A]",5.80 fold
9,"R20A: alanine variant of Glucagon like peptide-2 (GLP-2) (HADGSFSDEMNTILDNLAAADFINWLIQTKITD; Glucagon-like peptide 2; UniProt P01275 146-178, looked up, variant R20A) [Chimera R20A]",3.94 fold
10,"S5A: alanine variant of Glucagon like peptide-2 (GLP-2) (HADGAFSDEMNTILDNLAARDFINWLIQTKITD; Glucagon-like peptide 2; UniProt P01275 146-178, looked up, variant S5A) [Chimera S5A]",4.00 fold
11,"S7A: alanine variant of Glucagon like peptide-2 (GLP-2) (HADGSFADEMNTILDNLAARDFINWLIQTKITD; Glucagon-like peptide 2; UniProt P01275 146-178, looked up, variant S7A) [Chimera S7A]",7.59 fold
12,"T12A: alanine variant of Glucagon like peptide-2 (GLP-2) (HADGSFSDEMNAILDNLAARDFINWLIQTKITD; Glucagon-like peptide 2; UniProt P01275 146-178, looked up, variant T12A) [Chimera T12A]",3.11 fold
13,"T29A: alanine variant of Glucagon like peptide-2 (GLP-2) (HADGSFSDEMNTILDNLAARDFINWLIQAKITD; Glucagon-like peptide 2; UniProt P01275 146-178, looked up, variant T29A) [Chimera T29A]",4.78 fold
14,"T32A: alanine variant of Glucagon like peptide-2 (GLP-2) (HADGSFSDEMNTILDNLAARDFINWLIQTKIAD; Glucagon-like peptide 2; UniProt P01275 146-178, looked up, variant T32A) [Chimera T32A]",0.84 fold
15,"W25A: alanine variant of Glucagon like peptide-2 (GLP-2) (HADGSFSDEMNTILDNLAARDFINALIQTKITD; Glucagon-like peptide 2; UniProt P01275 146-178, looked up, variant W25A) [Chimera W25A]",1.37 fold
